Results published in paper PMC8489103, “The collagen structure of C1q induces wound healing by engaging discoidin domain receptor 2” (Molecular Medicine, 2021).
Where no end group is shown, it is not given here. The star is where a group is joined. Biotin = O=C1N[C@H]2[C@H](CS[C@H]2CCCCC(=O)*)N1

T1: NS0-derived recombinant mouse DDR2-Fc chimera protein (mouse, UniProt Q62371 24-399)
T1 construct: discoidin domain receptor 2 (DDR2), mouse, ectodomain Gln24-Arg399; also called 7479-DR; source: bought: R&D Systems (7479-DR), NS0-derived; not shown: Fc (mouse IgG2A, Glu98-Lys330), C-terminal, kept
T1 sequence (looked up): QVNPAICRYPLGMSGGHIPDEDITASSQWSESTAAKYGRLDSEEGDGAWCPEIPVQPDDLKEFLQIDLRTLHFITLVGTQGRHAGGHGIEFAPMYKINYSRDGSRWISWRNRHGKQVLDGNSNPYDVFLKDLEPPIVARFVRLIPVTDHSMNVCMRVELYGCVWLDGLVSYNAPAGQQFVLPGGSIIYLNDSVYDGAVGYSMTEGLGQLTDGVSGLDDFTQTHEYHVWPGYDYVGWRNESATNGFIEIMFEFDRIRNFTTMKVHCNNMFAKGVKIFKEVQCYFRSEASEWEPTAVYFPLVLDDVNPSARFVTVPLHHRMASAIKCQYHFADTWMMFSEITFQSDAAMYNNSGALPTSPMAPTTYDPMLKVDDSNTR

B1: C1qA peptide (Biotin-GSKGEQGEPGAPGI) (peptide)
peptide: Biotin-GSKGEQGEPGAPGI
notes: first two residues of the printed peptide; also called C1q collagen tail peptide; biotinylated C1qA peptide; source: synthetic peptide (GenScript)
B2: Recombinant human DDR2 possessing the ectodomain of DDR2 (Gln24-Arg399) with 6 × His-tag on C-terminal (domain or fragment, UniProt Q16832 24-399, looked up)
chain: QVNPAICRYPLGMSGGQIPDEDITASSQWSESTAAKYGRLDSEEGDGAWCPEIPVEPDDLKEFLQIDLHTLHFITLVGTQGRHAGGHGIEFAPMYKINYSRDGTRWISWRNRHGKQVLDGNSNPYDIFLKDLEPPIVARFVRFIPVTDHSMNVCMRVELYGCVWLDGLVSYNAPAGQQFVLPGGSIIYLNDSVYDGAVGYSMTEGLGQLTDGVSGLDDFTQTHEYHVWPGYDYVGWRNESATNGYIEIMFEFDRIRNFTTMKVHCNNMFAKGVKIFKEVQCYFRSEASEWEPNAISFPLVLDDVNPSARFVTVPLHHRMASAIKCQYHFADTWMMFSEITFQSDAAMYNNSEALPTSPMAPTTYDPMLKVDDSNTR
notes: discoidin domain receptor 2 (DDR2), human, ectodomain Gln24-Arg399; also called sDDR2; sDDR; source: bought: R&D Systems (2538-DR); not shown: 6xHis, C-terminal, kept

Key:
Conditions in all cases: both partners purified
[1] = target: T1, NS0-derived recombinant mouse DDR2-Fc …; assay: far-Western, overlay or dot blot; DDR2-Fc, DDR1-Fc or Fc (20 μg per spot) blotted on nitrocellulose; biotinylated C1qA peptide (200 nM) in 3% skim milk, RT, 2 h; detected with streptavidin
[2] = target: B2; assay: ELISA; C1qA peptide or control peptide coated at 8 μg/mL; sDDR2 (0.1, 0.5, 2, 8 μg/mL) added, RT, 2 h; detected with AP-conjugated anti-6x-His
[3] = target: T2, human C1q protein (human, UniProt P02745 23-245; P02746 28-253; P02747 29-245); assay: SPR; Biacore 3000; sDDR2 immobilised on CM5 chip; C1q 0, 2.5, 5, 10, 20, 40 μg/mL as analyte; 10 mM HEPES pH 7.4, 25 °C, 10 μL/min
T2 construct: complement C1q subcomponent subunit A, human; complement C1q subcomponent subunit B, human; complement C1q subcomponent subunit C, human; the bought protein is purified from human serum; source: bought: Sigma-Aldrich (C1740); for stimulation of cells Complement Technologies (A099); copies: + +
T2 sequence (P02745 23-245, chain 1 of 3): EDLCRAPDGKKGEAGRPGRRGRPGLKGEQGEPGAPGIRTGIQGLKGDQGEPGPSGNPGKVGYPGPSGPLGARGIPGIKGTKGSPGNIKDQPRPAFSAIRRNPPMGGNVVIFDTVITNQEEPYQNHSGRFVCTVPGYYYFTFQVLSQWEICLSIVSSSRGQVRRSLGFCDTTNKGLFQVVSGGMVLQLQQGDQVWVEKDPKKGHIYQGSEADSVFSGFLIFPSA
T2 sequence (P02746 28-253, chain 2 of 3): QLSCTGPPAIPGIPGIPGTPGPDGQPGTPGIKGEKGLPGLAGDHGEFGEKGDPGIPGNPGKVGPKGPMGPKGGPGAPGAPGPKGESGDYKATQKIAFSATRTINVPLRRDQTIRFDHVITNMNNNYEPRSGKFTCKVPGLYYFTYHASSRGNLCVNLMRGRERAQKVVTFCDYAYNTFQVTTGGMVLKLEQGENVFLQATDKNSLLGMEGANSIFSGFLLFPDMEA
T2 sequence (P02747 29-245, chain 3 of 3): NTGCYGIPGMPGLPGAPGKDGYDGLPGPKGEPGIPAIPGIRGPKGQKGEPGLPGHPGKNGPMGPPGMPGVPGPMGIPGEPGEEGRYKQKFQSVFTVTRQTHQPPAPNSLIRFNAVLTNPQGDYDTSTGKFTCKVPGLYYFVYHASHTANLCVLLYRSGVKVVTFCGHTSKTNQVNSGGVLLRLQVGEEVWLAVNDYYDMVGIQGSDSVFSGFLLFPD

Binder: B1
- binding result [1]: binds
- binding result [2]: binds

Binder: B2
- Kd [3]: 183 nM
